This note sets out measurements from the supplement of paper PMC10065799, “High-throughput profiling of sequence recognition by tyrosine kinases and SH2 domains using bacterial peptide display” (eLife, 2023).

One data set has as its target c-Src SH2. As to the kind of experiment: SH2 binding enrichment of the phosphorylated peptide, bacterial display (enrichment ratio); higher = better substrate or ligand; peptides without Tyr show the background.
A further data set addresses SHP2-C SH2. The description is as above.
Another data set has as its target Grb2 SH2 (UniProt P62993). The description is as above.
The target of another data set is EPHB1 (UniProt P54762). Kind of data set: phosphorylation enrichment, bacterial display (enrichment ratio); higher = better substrate or ligand; peptides without Tyr show the background.
Another data set addresses FGFR1 (UniProt P11362). Described as above.
The target of the next data set is FGFR3 (UniProt P22607). The data set is described as above.
The test system of another data set is c-Src. The description is as above.
In a further data set the test system is c-Abl (mouse). The data set is described as above.
The target of a further data set is EPHB2 (UniProt P29323). The description is as above.
The target in another data set is Fyn (UniProt P06241). Described as above.
Another data set concerns Fer (mouse). The description is as above.
For the next data set, the target named is Jak2 (UniProt O60674). Described as above.
Another data set concerns the target MERTK (UniProt Q12866). The description is as above.
In another data set the test system is AncSZ. The data set is described as above.
In another data set the target is Hck (UniProt P08631). Described as above.
The next data set has as its target Fes (UniProt P07332). Described as above.
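For SH2 binding enrichment of the phosphorylated peptide, bacterial display in this document: peptide library displayed on the E. coli surface as eCPX fusions, selected cells deep-sequenced, score is each peptide's frequency after selection divided by its frequency in the input.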
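For phosphorylation enrichment, bacterial display in this document: 11-residue human phosphosite peptides and single-mutation variants displayed on the E. coli surface, counted by deep sequencing, each peptide's frequency after selection divided by its frequency in the unselected input library; frequency after pTyr selection over input frequency; kinase dosed for 20-30% of maximal phosphorylation in three min.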

Sequence of FGFR1 (P11362 whole entry, looked up): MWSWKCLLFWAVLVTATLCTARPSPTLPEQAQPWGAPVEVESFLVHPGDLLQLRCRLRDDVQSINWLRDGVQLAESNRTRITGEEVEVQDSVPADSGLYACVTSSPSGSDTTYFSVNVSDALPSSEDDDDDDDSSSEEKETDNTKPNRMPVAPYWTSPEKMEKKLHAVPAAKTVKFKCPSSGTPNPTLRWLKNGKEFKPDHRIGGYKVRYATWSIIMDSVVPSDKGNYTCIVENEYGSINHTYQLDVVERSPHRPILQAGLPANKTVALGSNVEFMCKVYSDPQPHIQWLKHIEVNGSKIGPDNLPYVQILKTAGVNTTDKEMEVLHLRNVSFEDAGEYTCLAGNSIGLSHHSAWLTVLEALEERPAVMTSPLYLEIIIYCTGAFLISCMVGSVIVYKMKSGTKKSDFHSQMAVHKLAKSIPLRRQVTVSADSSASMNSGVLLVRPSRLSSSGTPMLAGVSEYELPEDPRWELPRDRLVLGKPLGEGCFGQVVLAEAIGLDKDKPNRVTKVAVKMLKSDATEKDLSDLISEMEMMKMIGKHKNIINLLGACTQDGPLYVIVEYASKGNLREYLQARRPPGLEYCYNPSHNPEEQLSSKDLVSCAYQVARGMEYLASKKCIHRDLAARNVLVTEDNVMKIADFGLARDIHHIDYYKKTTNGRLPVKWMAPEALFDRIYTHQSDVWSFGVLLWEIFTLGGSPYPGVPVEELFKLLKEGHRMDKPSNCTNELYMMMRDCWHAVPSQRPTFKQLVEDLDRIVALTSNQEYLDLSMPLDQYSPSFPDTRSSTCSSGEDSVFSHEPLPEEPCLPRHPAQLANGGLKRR
Sequence of Hck (P08631 whole entry, looked up): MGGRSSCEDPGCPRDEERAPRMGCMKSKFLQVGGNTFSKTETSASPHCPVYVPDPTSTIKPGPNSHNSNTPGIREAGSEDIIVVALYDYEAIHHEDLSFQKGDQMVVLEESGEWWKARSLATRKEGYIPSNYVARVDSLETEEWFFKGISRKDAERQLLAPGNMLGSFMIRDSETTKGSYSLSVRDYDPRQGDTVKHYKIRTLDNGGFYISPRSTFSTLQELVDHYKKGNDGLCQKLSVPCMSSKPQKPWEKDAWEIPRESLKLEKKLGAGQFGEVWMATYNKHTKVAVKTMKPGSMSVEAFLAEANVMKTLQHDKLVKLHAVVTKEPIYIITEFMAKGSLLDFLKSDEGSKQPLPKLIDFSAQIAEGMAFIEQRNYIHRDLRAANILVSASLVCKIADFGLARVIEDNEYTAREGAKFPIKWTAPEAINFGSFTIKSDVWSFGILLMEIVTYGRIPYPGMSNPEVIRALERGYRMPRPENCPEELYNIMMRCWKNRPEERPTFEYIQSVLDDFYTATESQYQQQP
Sequence of FGFR3 (P22607 whole entry, looked up): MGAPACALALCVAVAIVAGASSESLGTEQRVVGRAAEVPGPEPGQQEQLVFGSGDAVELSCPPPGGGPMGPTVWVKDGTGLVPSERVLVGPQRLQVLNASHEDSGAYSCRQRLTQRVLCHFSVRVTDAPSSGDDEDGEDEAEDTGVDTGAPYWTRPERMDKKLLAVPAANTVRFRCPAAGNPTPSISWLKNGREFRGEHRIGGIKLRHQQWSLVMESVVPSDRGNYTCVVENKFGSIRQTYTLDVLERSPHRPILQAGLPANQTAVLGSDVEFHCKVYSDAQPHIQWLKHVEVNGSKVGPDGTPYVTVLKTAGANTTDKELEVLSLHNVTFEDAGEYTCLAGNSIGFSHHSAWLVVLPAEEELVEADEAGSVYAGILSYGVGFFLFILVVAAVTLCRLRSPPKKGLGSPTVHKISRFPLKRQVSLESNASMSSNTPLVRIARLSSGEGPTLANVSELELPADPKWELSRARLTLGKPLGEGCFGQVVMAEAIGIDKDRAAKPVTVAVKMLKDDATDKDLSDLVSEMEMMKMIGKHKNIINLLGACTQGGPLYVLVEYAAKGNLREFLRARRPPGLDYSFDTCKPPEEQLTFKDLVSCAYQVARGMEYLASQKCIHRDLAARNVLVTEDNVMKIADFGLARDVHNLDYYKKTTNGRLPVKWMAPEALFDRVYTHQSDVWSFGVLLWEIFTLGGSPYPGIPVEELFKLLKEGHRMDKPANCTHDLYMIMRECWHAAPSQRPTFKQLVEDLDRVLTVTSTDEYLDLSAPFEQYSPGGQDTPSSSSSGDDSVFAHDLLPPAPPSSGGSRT
Sequence of Fes (P07332 whole entry, looked up, the tested form may be a part): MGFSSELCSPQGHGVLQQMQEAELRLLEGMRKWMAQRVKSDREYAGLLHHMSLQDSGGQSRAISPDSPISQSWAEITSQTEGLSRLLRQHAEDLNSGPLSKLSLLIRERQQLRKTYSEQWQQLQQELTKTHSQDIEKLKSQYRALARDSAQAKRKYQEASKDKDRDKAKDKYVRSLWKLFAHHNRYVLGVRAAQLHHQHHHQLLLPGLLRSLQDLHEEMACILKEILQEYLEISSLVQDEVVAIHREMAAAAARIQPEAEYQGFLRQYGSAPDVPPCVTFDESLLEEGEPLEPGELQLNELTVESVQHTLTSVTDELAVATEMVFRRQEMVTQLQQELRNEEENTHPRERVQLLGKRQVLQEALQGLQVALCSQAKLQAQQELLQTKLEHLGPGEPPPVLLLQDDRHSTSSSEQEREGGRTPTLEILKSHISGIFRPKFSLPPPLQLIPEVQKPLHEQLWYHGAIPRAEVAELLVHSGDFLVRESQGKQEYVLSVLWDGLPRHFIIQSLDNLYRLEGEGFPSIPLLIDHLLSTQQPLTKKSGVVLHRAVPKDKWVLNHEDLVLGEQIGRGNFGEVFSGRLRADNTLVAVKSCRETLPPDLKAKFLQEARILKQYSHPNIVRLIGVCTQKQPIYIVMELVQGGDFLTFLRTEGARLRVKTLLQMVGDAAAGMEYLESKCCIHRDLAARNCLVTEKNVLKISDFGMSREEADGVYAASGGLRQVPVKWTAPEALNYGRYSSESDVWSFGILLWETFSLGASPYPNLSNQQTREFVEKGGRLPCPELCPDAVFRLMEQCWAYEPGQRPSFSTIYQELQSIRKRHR
Sequence of MERTK (Q12866 whole entry, looked up): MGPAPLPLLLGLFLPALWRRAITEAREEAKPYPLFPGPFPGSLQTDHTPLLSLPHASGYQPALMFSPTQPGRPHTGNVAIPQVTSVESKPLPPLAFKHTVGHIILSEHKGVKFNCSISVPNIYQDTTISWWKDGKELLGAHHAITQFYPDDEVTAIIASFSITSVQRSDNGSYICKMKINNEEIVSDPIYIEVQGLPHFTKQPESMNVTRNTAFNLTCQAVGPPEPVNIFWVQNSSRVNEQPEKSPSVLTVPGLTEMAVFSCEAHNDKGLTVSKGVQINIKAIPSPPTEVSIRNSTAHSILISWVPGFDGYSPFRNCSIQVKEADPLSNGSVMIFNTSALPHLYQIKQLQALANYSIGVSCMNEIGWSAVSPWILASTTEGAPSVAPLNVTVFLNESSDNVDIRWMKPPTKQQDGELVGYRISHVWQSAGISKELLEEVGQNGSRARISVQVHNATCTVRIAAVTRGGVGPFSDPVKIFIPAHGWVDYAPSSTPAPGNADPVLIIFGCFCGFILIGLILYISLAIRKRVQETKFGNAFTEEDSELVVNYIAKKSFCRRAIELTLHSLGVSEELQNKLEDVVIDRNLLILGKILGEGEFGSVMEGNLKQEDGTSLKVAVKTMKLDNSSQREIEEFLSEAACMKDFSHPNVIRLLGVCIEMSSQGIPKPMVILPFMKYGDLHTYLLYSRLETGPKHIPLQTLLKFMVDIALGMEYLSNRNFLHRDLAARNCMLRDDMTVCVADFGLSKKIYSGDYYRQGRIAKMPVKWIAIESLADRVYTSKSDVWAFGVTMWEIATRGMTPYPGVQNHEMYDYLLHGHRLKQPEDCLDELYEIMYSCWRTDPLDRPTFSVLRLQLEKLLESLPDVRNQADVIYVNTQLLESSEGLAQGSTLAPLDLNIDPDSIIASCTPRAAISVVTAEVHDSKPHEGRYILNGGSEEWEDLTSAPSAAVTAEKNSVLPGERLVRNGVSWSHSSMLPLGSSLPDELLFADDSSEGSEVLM
Sequence of EPHB2 (P29323 whole entry, looked up): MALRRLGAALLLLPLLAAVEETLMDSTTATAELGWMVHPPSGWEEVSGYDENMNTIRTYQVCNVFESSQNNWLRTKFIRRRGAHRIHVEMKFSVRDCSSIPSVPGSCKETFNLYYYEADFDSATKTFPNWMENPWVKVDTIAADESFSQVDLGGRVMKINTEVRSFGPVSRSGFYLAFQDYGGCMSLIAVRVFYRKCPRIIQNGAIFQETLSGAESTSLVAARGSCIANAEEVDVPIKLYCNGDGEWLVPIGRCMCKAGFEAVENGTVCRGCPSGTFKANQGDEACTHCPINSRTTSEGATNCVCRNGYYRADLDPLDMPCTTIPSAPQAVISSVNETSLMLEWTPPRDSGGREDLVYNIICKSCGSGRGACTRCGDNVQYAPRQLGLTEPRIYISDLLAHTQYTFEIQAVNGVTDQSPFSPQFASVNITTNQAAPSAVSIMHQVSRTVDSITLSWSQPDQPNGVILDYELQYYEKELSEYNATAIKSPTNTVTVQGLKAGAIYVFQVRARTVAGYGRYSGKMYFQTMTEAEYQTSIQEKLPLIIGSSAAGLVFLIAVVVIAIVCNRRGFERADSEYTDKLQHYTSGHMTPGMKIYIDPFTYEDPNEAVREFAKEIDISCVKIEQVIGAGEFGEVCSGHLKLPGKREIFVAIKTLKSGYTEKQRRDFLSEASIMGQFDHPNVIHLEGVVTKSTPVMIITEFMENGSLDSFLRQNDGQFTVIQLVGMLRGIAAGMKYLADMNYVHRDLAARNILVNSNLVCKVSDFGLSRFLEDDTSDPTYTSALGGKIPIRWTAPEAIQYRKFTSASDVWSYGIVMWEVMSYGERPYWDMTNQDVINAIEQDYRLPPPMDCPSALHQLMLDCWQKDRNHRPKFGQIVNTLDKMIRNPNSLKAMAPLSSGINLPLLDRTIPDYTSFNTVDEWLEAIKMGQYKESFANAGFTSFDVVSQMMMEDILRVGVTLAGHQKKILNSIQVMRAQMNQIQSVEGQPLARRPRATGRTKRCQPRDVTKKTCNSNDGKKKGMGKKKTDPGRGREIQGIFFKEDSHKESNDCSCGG

As for RFLKDYGEFEV [GINS1_Y156_C152Y_YF], the figures for the SH2 binding enrichment with c-Src SH2, in the data set with SHP2-C SH2 and with Grb2 SH2 were 0.43, 0.749 and 1.26, respectively. Besides, the phosphorylation enrichment with EPHB1 was found to be 0.497; in the data set with FGFR1, 0.582; in the data set with FGFR3, 0.877; with c-Src, 1.07; in the data set with c-Abl (mouse), 0.835; with EPHB2, 0.569. Moreover, the phosphorylation enrichment with Fyn came to 0.85; with Fer (mouse), 0.63; with Jak2, 1.13; in the data set with MERTK, 0.778; with AncSZ, 1.04; with Hck it was 0.695. Moreover, the phosphorylation enrichment with Fes came to 1.39.

For the sequence RFLTRYIFNRE [HLA-DQB1_Y62_V59L_YF], the figures for the SH2 binding enrichment with c-Src SH2, with SHP2-C SH2 and in the data set with Grb2 SH2 were 0.593, 1.17 and 0.67, respectively. Moreover, the phosphorylation enrichment with EPHB1 is 0.624; with FGFR1, 0.408; with FGFR3, 0.674; in the data set on c-Src it was 0.706; in the data set with c-Abl (mouse), 0.631; with EPHB2, 0.567. In addition, the phosphorylation enrichment in the data set with Fyn came out at 0.606; in the data set on Fer (mouse), 0.897; with Jak2, 1.29; with MERTK, 0.578; in the data set on AncSZ, 1; with Hck it was 0.452. Also, the phosphorylation enrichment in the data set with Fes was 1.17.

As for RGDCMYASLLG [AR_Y269_P271S], the SH2 binding enrichment with c-Src SH2 is 1.12; with SHP2-C SH2 it was 1.99; with Grb2 SH2 it was 1.26. Moreover, the phosphorylation enrichment with EPHB1 came out at 2.43; with FGFR1 it was 1.45; in the data set with FGFR3, 1.52; in the data set with c-Src, 6; in the data set with c-Abl (mouse) it was 1.42; with EPHB2 it was 1.49. Moreover, the phosphorylation enrichment came to 6.63 with Fyn; 1.1 in the data set with Fer (mouse); 1.03 with Jak2; 4.87 with MERTK; 1.25 in the data set with AncSZ; 7.26 in the data set with Hck. Moreover, in the data set with Fes, the phosphorylation enrichment is 1.39.

As for RGEAVYSRDCV [XPC_Y676], the SH2 binding enrichment with c-Src SH2 is 0.522; in the data set with SHP2-C SH2, 0.751; with Grb2 SH2, 0.788. Further, the phosphorylation enrichment with EPHB1 was 0.764; in the data set with FGFR1, 0.718; with FGFR3 it was 1.01; with c-Src, 2.34; in the data set on c-Abl (mouse), 0.692; with EPHB2, 0.655. Moreover, the phosphorylation enrichment with Fyn was determined as 2.95; in the data set with Fer (mouse), 0.472; with Jak2, 1.01; with MERTK, 0.857; with AncSZ it was 0.997; in the data set with Hck, 2.93. Further, the phosphorylation enrichment in the data set with Fes was 1.2.

Take RGVTRYIFNRE [HLA-DQB1_Y62_Y58G_YF]: the SH2 binding enrichment with c-Src SH2 worked out at 0.494; in the data set with SHP2-C SH2, 0.512; with Grb2 SH2, 0.821. Further, the phosphorylation enrichment in the data set with EPHB1 was determined as 1; in the data set with FGFR1 it was 0.757; with FGFR3, 1.27; in the data set with c-Src, 1.38; in the data set with c-Abl (mouse) it was 1.34; in the data set with EPHB2, 0.766. Also, the phosphorylation enrichment in the data set with Fyn was determined as 0.982; with Fer (mouse) it was 0.886; in the data set with Jak2 it was 1.74; in the data set with MERTK it was 1.59; in the data set on AncSZ it was 2.22; with Hck it was 1.08. Further, the phosphorylation enrichment with Fes is 1.85.

For RHLREYQDLLN [DES_Y388], the SH2 binding enrichment with c-Src SH2 was determined as 2.29; with SHP2-C SH2, 0.872; with Grb2 SH2, 1.25. Also, the phosphorylation enrichment with EPHB1 was 0.621; in the data set with FGFR1, 0.61; with FGFR3, 0.641; in the data set with c-Src, 0.41; in the data set with c-Abl (mouse), 0.888; with EPHB2, 1.12. The phosphorylation enrichment with Fyn came out at 0.483; with Fer (mouse), 0.533; in the data set with Jak2, 0.807; with MERTK, 0.491; in the data set with AncSZ it was 0.93; with Hck, 0.464. In addition, the phosphorylation enrichment in the data set with Fes is 1.19.

RHTRSYDFTEG [FGF7_Y56_M59T_YF]: the SH2 binding enrichment was 0.427 with c-Src SH2, 0.611 with SHP2-C SH2 and 0.88 with Grb2 SH2. Moreover, the phosphorylation enrichment with EPHB1 came to 0.377; in the data set with FGFR1 it was 0.411; with FGFR3, 0.382; in the data set on c-Src, 0.351; in the data set on c-Abl (mouse), 0.563; with EPHB2, 0.492. The phosphorylation enrichment with Fyn was 0.366; with Fer (mouse), 0.399; in the data set with Jak2 it was 0.444; with MERTK it was 0.35; in the data set on AncSZ, 0.557; with Hck, 0.387. Besides, the phosphorylation enrichment with Fes is 0.695.

Regarding RHYVYYYSYLL [PTEN_Y177_R173H], the SH2 binding enrichment with c-Src SH2 is 0.536; with SHP2-C SH2, 0.906; with Grb2 SH2, 1.03. In addition, the phosphorylation enrichment is 2.69 with EPHB1; 7.03 with FGFR1; 6.42 in the data set with FGFR3; 2.18 with c-Src; 1.35 in the data set on c-Abl (mouse); 2.13 in the data set with EPHB2. In addition, the phosphorylation enrichment worked out at 1.59 with Fyn; 1.37 in the data set with Fer (mouse); 3.46 with Jak2; 5.71 with MERTK; 1.89 with AncSZ; 2.49 with Hck. Also, in the data set with Fes, the phosphorylation enrichment turned out to be 2.26.
